Columns and labels:
[1] = target: hemagglutinin (HA) of human influenza B virus, B/Malaysia/2506/04 strain (human influenza B virus, B/Malaysia/2506/04 strain); assay: cell-based or functional assay
[2] = target: hemagglutinin (HA) of human influenza B virus, B/Victoria/2/87 strain (human influenza B virus, B/Victoria/2/87 strain)
[3] = target: hemagglutinin (HA) of human influenza B virus, B/Shanghai/261/02 strain (human influenza B virus, B/Shanghai/261/02 strain)
[4] = target: hemagglutinin (HA) of human influenza B virus, B/Malaysia/2506/04 strain (human influenza B virus, B/Malaysia/2506/04 strain)
[5] = target: hemagglutinin (HA) of human influenza B virus, B/Mie/1/93 strain (human influenza B virus, B/Mie/1/93 strain)

Sequence of hemagglutinin (HA) of human influenza B virus, B/Victoria/2/87 strain (human influenza B virus, B/Victoria/2/87 strain) (P22092 16-585): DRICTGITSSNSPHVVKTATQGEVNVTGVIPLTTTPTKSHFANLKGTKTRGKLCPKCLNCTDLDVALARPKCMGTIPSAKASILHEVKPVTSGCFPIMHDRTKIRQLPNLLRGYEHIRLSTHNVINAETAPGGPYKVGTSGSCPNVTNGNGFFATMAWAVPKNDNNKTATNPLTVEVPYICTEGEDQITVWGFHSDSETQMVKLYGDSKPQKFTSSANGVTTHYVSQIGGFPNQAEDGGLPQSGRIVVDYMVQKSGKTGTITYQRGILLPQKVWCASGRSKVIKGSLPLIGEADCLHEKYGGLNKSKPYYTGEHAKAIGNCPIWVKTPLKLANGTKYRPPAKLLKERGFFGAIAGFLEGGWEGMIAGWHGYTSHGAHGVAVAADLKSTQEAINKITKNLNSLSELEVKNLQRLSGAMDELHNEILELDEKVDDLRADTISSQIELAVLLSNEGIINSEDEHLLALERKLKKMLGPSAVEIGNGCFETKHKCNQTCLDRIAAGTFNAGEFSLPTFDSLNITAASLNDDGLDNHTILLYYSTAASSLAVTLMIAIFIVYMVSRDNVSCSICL

B1: E-2 monoclonal antibody (antibody, V domains shown)
VH: QVQLQESGPGLVKPLQTLSLTCVVSGDSISRGGYYWSWVRQPPERGLEWIGDIYHSGSTNYNPALKSRTTISVETSKNQFSLQLNSVTAADTAVYYCAREPPPDYSDYKVGKGYFDYWGQGALVTVSS
VL: EIVLAQSPATLSLSPGERATLSCRASETVDTYLAWYQQKPGQAPRLLINDASKRATGIPARFSGSGSGTDFTLTISGLEPEDFAVYWCQQHSNWPPTFGQGSRLEIK
HI activity [1]: < 2 | Neutralization activity (% inhibition) [1]: 37.8 % inhibition | staining activity [2]: > 128 | staining activity [3]: > 128 | staining activity [4]: 128 | staining activity [5]: 128

B2: B-3 monoclonal antibody (antibody, V domains shown)
VH: QVKLVQSGGGAVQPGRSLRLSCEASGFDFTVYDIHWVRQAPGKGLEWVASIWHNGGKAYYADSVKGRFTVSRDNPQKTVYLQMSGLRPEDTATYYCAREFPFMGIYDYGMDAWGQGTTVTVAS
VL: QSVLAQPPSASGTPGQRVIISCSGTSSNIGGNSVNWYQHPPGAAPRLLIYTTDQRPSGVPDRFSGSKSGTSASLAISGLQSEDEADYYCEVWDDSLTRPVFGGGTKLTVL
HI activity [1]: < 2 | Neutralization activity (% inhibition) [1]: 31.7 % inhibition | staining activity [2]: 32 | staining activity [3]: 32 | staining activity [4]: 8 | staining activity [5]: 32

From patent US20110319600A1
